In paper PMC7340788, “Structure of the yeast Swi/Snf complex in a nucleosome free state” (Nature Communications, 2020):

B1: Swi3 (natural protein, S. cerevisiae, UniProt P32591 1-825, looked up)
chain: MENTLGEGSTVNASVDVDQHGNDNNSDSNANAAVAGVANTDTAGEESQQQDESLKDEATVPNTRDAESEAITVTAKQQPTMQANKLDSQETPSTEESRAQNVFGQDNEDSDNLFGETESSVSNNEANTPSIPTNPVDNENNKPAIKEDSTIQDSNGDVKNMEDVKIQKEEEPENNTVIEGVKEESQPDENTKEMDEVEEDDEDDDQPMISPDNSIFGDTKSESKQLGNTSSVANTPSEIPDAHKAEQEDIIEKTESVDKKVDSGEERNEQEREIMNDHSKSANPKKTTITRVEPETFEIPQAHEIVIPSYSKWFNLEKIHSIEVQSLPEFFTNRIPSKTPEVYMRYRNFMVNSYRLNPNEYFSVTTARRNVSGDAAALFRLHKFLTKWGLINYQVDSKLLPKNIEPPLTSQYSTRHDAPRGLFPFESYKPSVQLPDMAKLKKMMNTSDSESTLYKYLKESKRKYDEITHPPSTTDDENGDKNDNGGKMNNEVSTSTSMTGDANLLEEGETSRPLKKVKILEQIDENWSKEDLQKLLKGIQEFGADWYKVAKNVGNKSPEQCILRFLQLPIEDKFLYGDGNGKGDNDNGLGPLKYAPHLPFSKSENPVLSTIAFLVGLVNPKTVQSMTQRAIQSAESIKSQKEEISDQKPIEHIKEGSEIAISSLGYRSHIFATNEERQMNFLTNELIRLQMEKLDAKLNHLKKLEKFMELERKTLERQQENLLIQRLNFNQNSSKIVNVLSKCLNLISDSNINNSSVAEKEEIRSQIDHFKSMLSKPETLSIGKNPFNKPNIETGENHNGQSISNENDVKPISIEAPQFYRYWSA
notes: Swi3, subunit of the S. cerevisiae Swi/Snf complex; endogenous protein; two copies (chains A and B) in the model; also called Swi3A; Swi3B; source: endogenous, S. cerevisiae; purified as part of the Swi/Snf complex through Snf6-3Flag (ANTI-FLAG M2 resin, Superose 6)

What was measured:
Assay in all cases: cryo-EM structure; endogenous Swi/Snf complex purified as a whole through Snf6-3Flag, nucleosome-free, cross-linked with 1 mM BS3, 20 mM HEPES pH 7.4, 350 mM NaCl; 4.1 Å average, 2.9 Å for the base module
Snf5 = molecular target: T1, Snf5 (S. cerevisiae, UniProt P18480 1-905); settings: both partners purified
T1 construct: Snf5, subunit of the S. cerevisiae Swi/Snf complex; endogenous protein; For cryo-EM the complex was cross-linked with 1 mM BS3; source: endogenous, S. cerevisiae; purified as part of the Swi/Snf complex through Snf6-3Flag (ANTI-FLAG M2 resin, Superose 6)
T1 sequence (P18480 whole entry): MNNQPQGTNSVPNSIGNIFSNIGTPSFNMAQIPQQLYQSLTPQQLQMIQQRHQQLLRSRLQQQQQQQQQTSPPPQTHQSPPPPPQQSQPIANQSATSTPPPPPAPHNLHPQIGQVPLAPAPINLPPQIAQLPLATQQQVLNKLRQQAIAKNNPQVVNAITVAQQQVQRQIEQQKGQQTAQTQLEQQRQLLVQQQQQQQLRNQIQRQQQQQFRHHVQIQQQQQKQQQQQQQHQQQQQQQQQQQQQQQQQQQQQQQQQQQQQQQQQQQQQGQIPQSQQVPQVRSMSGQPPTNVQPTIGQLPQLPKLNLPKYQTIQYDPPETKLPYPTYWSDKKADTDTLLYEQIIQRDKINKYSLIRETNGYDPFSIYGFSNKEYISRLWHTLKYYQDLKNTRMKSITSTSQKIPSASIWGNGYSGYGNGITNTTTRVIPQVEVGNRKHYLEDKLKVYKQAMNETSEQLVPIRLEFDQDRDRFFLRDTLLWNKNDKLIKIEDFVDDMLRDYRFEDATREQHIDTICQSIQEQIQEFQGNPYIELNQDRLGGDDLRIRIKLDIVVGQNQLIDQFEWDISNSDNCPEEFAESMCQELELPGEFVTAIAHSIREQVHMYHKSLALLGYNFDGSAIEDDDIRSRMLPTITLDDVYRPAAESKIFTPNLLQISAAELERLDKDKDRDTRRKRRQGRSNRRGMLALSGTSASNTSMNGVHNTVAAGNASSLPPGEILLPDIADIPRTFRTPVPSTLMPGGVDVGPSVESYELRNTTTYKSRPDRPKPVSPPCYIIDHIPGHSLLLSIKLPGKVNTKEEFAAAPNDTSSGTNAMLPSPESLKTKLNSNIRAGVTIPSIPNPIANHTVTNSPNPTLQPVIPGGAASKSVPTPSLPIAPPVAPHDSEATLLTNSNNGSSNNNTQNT

Swi3 = molecular target: B1; settings: both partners purified
Snf2 = molecular target: T2, Snf2 (S. cerevisiae, UniProt P22082 1-1703); settings: both partners purified
T2 construct: Snf2, ATPase-containing subunit of the S. cerevisiae Swi/Snf complex; endogenous protein; Only the preHSA domain and the HSA helix are seen in the map; the ATPase domain is absent from the structure; For cryo-EM the complex was cross-linked with 1 mM BS3; source: endogenous, S. cerevisiae; purified as part of the Swi/Snf complex through Snf6-3Flag (ANTI-FLAG M2 resin, Superose 6)
T2 sequence (P22082 whole entry, the tested form may be a part): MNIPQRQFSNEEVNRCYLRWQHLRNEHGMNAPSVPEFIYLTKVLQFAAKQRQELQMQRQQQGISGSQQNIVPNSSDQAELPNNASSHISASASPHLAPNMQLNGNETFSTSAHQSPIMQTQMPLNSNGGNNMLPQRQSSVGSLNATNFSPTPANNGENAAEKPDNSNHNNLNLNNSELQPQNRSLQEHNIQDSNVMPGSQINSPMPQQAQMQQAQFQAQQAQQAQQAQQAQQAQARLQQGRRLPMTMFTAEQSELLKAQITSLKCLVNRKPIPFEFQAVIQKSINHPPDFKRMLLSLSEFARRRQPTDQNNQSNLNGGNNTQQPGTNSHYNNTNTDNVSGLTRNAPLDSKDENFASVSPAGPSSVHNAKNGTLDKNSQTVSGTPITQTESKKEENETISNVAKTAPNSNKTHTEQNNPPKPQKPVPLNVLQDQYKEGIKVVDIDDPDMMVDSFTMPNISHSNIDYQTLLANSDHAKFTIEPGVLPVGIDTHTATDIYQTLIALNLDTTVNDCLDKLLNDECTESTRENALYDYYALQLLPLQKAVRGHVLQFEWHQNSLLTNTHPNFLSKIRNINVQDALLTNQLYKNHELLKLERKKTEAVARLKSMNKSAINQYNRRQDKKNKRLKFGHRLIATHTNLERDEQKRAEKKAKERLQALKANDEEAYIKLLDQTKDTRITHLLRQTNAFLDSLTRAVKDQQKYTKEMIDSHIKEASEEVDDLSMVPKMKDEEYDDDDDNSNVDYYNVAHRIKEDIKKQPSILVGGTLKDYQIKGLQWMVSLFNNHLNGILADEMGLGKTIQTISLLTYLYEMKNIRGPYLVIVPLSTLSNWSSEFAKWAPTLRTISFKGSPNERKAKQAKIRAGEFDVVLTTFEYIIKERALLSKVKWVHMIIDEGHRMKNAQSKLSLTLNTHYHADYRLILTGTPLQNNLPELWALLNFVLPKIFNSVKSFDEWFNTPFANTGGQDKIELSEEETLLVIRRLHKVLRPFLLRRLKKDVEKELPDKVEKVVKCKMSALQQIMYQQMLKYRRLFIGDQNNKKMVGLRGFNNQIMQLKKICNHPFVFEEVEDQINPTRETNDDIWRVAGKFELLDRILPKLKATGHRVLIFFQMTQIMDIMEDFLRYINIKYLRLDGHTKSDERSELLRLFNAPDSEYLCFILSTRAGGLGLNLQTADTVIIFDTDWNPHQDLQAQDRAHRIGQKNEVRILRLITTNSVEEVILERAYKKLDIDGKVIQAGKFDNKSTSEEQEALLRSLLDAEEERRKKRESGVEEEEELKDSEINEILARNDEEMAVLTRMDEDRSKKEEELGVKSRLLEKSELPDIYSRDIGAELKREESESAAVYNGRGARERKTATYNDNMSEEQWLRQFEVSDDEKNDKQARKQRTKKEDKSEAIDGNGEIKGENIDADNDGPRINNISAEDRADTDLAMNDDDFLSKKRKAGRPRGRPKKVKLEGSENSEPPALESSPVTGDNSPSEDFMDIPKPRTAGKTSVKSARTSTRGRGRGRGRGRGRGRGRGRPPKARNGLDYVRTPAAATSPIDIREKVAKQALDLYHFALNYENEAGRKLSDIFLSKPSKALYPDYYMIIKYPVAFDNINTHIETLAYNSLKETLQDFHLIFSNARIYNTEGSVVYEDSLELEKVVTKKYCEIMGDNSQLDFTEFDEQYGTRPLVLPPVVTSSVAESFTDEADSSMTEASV

[1] = molecular target: the molecule itself
Swi1 = molecular target: T3, Swi1 (S. cerevisiae, UniProt P09547 1-1314); settings: both partners purified
T3 construct: Swi1, subunit of the S. cerevisiae Swi/Snf complex; endogenous protein; Only part of the chain is modelled (C-terminus with seven ARM repeats, α1, β1); For cryo-EM the complex was cross-linked with 1 mM BS3; source: endogenous, S. cerevisiae; purified as part of the Swi/Snf complex through Snf6-3Flag (ANTI-FLAG M2 resin, Superose 6)
T3 sequence (looked up): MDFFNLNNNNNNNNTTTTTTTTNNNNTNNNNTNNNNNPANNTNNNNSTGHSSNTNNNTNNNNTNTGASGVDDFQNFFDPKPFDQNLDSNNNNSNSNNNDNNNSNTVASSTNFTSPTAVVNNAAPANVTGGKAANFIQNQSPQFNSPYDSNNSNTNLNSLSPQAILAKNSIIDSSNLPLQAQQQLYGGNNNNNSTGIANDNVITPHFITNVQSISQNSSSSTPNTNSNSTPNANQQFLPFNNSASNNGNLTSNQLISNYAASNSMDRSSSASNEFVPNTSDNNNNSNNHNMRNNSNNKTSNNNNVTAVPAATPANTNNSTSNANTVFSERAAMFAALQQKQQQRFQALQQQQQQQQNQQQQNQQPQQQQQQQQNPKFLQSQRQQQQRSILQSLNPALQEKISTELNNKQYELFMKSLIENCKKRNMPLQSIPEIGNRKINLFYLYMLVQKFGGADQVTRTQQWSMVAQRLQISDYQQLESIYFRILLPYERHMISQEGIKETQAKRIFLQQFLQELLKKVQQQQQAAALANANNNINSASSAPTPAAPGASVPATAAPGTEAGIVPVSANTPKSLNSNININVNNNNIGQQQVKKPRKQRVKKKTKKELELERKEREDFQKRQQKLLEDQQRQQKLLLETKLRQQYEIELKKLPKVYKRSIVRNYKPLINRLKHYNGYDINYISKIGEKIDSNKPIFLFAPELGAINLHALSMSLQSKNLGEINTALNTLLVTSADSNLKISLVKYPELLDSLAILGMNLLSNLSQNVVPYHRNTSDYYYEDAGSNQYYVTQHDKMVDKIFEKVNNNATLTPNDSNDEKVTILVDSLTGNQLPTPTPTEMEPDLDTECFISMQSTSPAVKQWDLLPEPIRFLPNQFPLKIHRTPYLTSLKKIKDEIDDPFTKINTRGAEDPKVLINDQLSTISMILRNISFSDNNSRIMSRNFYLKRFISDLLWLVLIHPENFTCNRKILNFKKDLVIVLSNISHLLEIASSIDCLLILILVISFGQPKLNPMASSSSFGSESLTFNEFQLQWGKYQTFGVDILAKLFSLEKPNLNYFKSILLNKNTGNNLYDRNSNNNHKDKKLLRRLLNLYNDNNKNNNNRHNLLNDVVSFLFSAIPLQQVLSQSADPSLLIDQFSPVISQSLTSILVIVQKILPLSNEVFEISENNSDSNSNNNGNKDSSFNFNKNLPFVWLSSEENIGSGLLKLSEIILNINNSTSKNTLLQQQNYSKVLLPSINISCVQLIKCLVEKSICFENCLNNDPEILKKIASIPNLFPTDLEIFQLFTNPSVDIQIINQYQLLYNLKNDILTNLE

Binder	binding result (Snf5)	binding result (Swi3)	binding result (Snf2)	stoichiometry N [1]	binding result (Swi1)
Swp82 (natural protein, S. cerevisiae, UniProt P43554 1-623, looked up, Swp82, subunit of the S. cerevisiae Swi/Snf complex; endogenous protein; For cryo-EM the complex was cross-linked with 1 mM BS3; source: endogenous, S. cerevisiae; purified as part of the Swi/Snf complex through Snf6-3Flag (ANTI-FLAG M2 resin, Superose 6)) MLGEDEGNTVLEKGNNPSVKQGEVGAVFIVPKILIREHERVILKQILQILDQDELVQPPLDKFPYKKLELPKYIDELKTRDATNTSYKMIQLDAYGEKKVGSNGELFGGRHYLFNTFTFTAHMGVLLVLLQDVIKVLYQSNATHDEDEFIVQHDQILVMETSEEQTKFLAKNGVIPEESKGSFKYITARSAFVEFGASVIAGGQRIVDDYWESLAKKQNLSSHQRVFKLSTNLISKISLLRPSFQNNRISNANEISANTNNTCTISTSKFESQYPIVTEQPSAEIREAYIENFAKGEHISAIVPGQSISGTLELSAQFRVPRYHSKNSFQQALQMKAMDIPIGRHEELLAQYESQAPDGSASISLPNHIPSVNPSNKPIKRMLSSILDINVSSSKNKKSEENEMIKPMNKGQHKNNTSLNINGWKFESLPLKSAENSGKQQYYRGLPLYEKNTLLERLKQLTPNEIKELEHLHDAVFVNTGLQNVRKVRTKKWKKYWQYKAGIPIGLKRSQLDEFKNKYLKDVLAQTSVTTNFNEITNTDETITTKRVPNPNFLGNCNIKDFKPPYIYSHVNKVPQNVAGDKTAVKLDTEVKNTNANPVVATDPVAAKPDNLANFSNEVAMNN	binds	binds	binds		
B1	binds		binds	2	binds
